# Numbering of substitutions follows the chain as printed.
# T1: Chimeric protein #1 (mPro-hCat-mC-term-mmh) (mouse; human, UniProt Q80W65 35-694)
# T1 chain: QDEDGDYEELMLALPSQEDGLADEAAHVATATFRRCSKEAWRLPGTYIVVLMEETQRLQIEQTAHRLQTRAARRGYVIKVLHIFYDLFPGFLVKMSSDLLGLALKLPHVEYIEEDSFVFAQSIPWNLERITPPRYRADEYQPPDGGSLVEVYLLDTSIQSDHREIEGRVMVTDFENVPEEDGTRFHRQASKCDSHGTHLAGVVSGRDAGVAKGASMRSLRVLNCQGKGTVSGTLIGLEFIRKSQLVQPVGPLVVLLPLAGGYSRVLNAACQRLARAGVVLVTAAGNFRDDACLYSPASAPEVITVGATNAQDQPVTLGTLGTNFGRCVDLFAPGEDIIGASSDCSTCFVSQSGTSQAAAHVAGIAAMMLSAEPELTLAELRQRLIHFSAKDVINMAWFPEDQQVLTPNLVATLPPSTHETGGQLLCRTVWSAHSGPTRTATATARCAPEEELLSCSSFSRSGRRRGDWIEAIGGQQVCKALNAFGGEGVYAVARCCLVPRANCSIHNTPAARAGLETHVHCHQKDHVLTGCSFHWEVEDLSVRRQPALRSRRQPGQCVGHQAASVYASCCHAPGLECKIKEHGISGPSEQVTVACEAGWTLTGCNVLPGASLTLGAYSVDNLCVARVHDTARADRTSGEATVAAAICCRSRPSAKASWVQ
# T2: Chimeric protein #3 (mPro-mCat-hC-term-mmh) (mouse; human)
# T2 chain: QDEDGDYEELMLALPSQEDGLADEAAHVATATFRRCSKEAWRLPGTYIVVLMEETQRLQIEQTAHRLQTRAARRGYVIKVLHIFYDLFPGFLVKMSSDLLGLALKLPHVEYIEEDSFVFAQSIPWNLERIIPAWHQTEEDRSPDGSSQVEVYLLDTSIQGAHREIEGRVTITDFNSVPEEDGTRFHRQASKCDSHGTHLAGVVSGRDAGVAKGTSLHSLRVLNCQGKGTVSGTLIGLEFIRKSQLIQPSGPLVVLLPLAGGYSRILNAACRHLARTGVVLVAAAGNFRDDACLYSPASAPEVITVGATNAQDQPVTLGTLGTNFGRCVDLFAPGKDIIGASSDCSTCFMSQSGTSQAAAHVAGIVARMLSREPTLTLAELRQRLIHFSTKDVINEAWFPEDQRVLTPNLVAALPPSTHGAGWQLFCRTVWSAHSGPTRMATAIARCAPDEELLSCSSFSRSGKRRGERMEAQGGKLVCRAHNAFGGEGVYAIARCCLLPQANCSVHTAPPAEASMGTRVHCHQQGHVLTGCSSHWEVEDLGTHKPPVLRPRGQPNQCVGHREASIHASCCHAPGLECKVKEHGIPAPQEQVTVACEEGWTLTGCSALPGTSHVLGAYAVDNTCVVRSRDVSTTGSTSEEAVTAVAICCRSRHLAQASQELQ
# B1: H1M300 (antibody, V domains shown)
# VH: EMQLVESGGGLVQPGGSLRLSCAASGFTFSSHWMKWVRQAPGKGLEWVANINQDGSEKYYVDSVKGRFTISRDNAKNSLFLQMNSLRAEDTAVYYCARDIVLMVYDMDYYYYGMDVWGQGTTVTVSS
# VL: not shown
# notes: Hybridoma-derived chimeric antibody (human variable, mouse constant)
# B2: H1M495 (antibody, V domains shown)
# VH: EVQLVESGGGLVQPGRSLRLSCAASGFTFDDYAMHWVRQAPGKGLEWVSGINWNSGSIGYADSVKGRFTISRDNAKHSLYLQMNSLRPEDTALYYCVKEVTTGYYYGMDVWGQGTTVTVSS
# VL: DIQLTQSPSFLSASVGDRVTITCWASQGISSYLAWYQKKPGKAPNLLIYDASTLQSGVPSRFSGSGSGTEFTLTLSSLQPEDFATYYCQQLNIYPFTFGPGTKVDIK
# notes: as for B1
# B3: H1M498 (antibody, V domains shown)
# VH: EVQLVESGGGLVKPGGSLRLSCAASGFTFSSYSMDWVRQAPGKGLEWVSSISSSSSYIYYADSVKGRFTISRDTAKNSLYLQMNSLRDEDTAVYYCAREGSSRLFDYWGQGTLVTVSS
# VL: DIQMTQSPSTLSASVGDRVTITCRASQSISSWLAWYQQRPGKAPKLLIYKASSLEGGVPSRFSGSGSGTEFTLTISSLQPEDFATYYCQQYNSYWYTFGQGTKLEIK
# notes: as for B1
# B4: H1H321P (antibody, V domains shown)
# VH: QITLKESGPTLVKPTQTLTLTCTFSGFSLITSGVGVGWIRQPPGKALEWLALIYWNGDKRYSPSLKSRLTITKDTSKNQVVLTMTNMDPVDTATYYCAHRITETSYYFYYGMDVWGQGTTVTVSS
# VL: not shown
# notes: Fully human antibody cloned from B cells, made in CHO cells
# B5: H1H334P (antibody, V domains shown)
# VH: B4 VH with T15S, I30S, G57S, I101H, T102D, E103S, T104S
# VL: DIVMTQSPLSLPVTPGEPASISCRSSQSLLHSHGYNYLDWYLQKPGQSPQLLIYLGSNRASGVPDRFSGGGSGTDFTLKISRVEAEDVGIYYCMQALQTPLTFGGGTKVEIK
# notes: as for B4
# B6: H1H318P (antibody, V domains shown)
# VH: QVQLQESGPGLVKPSETLSLTCTVSGDSINTYYWSWFRQPPGKGLEWIGYIYYSGTTNYNPSLKSRVTISIDTPRNQFSLKLISVTAADTAVYYCARERITMIRGVTLYYYSYGMDVWGQGTTVTVSS
# VL: DIQMTQSPSFLSASVGDRVTITCWASQDISSYLAWYQQKPGIAPKLLIYAASTLQSGVPSRFGGSGSGTEFTLTISSLQPEDFATYYCQQLNSYPRTFGQGTKVEIK
# notes: as for B4
# B7: H1H315P (antibody, V domains shown)
# VH: QVQLVESGGGVVQPGRSLRLSCAASGFTFSSYGMHWVRQAPGKGLEWVAFIGFDGSNIYYGDSVRGRIIISRDNSENTLYLEMNSLRAEDTAVYYCAREKGLDWGQGTLVTVSS
# VL: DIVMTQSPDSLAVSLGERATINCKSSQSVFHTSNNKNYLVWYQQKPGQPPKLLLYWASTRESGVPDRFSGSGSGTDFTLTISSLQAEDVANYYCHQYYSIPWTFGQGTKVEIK
# notes: as for B4
# B8: H1H320P (antibody, V domains shown)
# VH: QVQLVQSGAEVKKPGASVKVSCKASGYTFTNYGISWVRQAPGQGLELMGWISGYNGNTNYAQELQARVTMTTDTSTSTAYMELRNLRSDDTAVYYCARDRVVVAAANYYFYSMDVWGQGTTVTVSS
# VL: DVVMTQSPLSLSVTLGQPASISCRSSQSLVYSDGDTYLNWFQQRPGQSPRRLIYKVSNRDSGVPDRFSGSGSGTAFTLKISGVEAEDVGVYYCMQATHWPRTFGQGTKVEIK
# notes: as for B4
# B9: H1H317P (antibody, V domains shown)
# VH: EVQLVESGGGLVQPGGSLRLSCAVSGFTLSSYDMHWVRQPTGKGLEWVSAIGSTGDTYYPGSVKGRFTISRENAKNSLYLQMNSLRAGDTAVYYCAREGWDVPFDFWGQGTLVTVSS
# VL: AIQMTQSPSSLSASVGDRVTITCRASQDIRNDLGWYQQKPGKAPKLLIYAASSLQSGVPSRFSGSGSGTDFTLTISSLQPEDFATYYCLQDYNYPWTFGQGTKVEIK
# notes: as for B4
# Target: T3, Human PCSK9-myc-myc-his (human, UniProt Q8NBP7 31-692)
# T3 construct: also called hPCSK9-mmh; hPCSK9
# Assay: SPR, mAb captured, 25C
# Description: (§1) Each antibody was captured at a flow rate of 4 μl/min for 90 sec on a goat anti-mouse IgG polyclonal antibody surface created through direct chemical coupling to a BIACORE™ chip to form a captured antibody surface.
Binder,Kd [nM],T1/2 [min]
B1,0.399,170
B2,0.44,222
B3,6.4,30

# Target: T3, Human PCSK9-myc-myc-his
# Assay: SPR, mAb captured, 37C
# Description: (§2) Each selected antibody was captured at a flowrate of 2 μl/min for 6 min on a goat anti-human IgG polyclonal antibody surface created through direct chemical coupling to a BIACORE™ chip to form a captured antibody surface.
Binder,Kd [nM],T1/2 [min]
B4,3.36,23
B5,15.9,8
B6,1.69,28
B7,0.413,35
B8,1.93,8
B9,18.6,70

# Target: T4, mouse PCSK9, myc-myc-his tagged (mouse, UniProt Q80W65 35-694)
# T4 construct: also called mPCSK9-mmh; mPCSK9
# Assay: ELISA, mAb coated, 1.2 nM antigen;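 further: antigen allowed to bind for 1 h at room temperature, then captured protein revealed with an HRP-linked polyclonal anti-myc antibody and read as optical density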
# Excerpt: (§3) After 1 hr binding at RT, the plate was washed and bound test protein detected using HRP-conjugated anti-myc polyclonal antibody (++=OD>1.0; +=OD 0.4-1.0; −=OD<0.4).
row,Binder,OD [od]
1,B1,< 0.4
2,B5,< 0.4
3,B6,< 0.4
4,B8,< 0.4
5,B2,< 0.4
6,B3,< 0.4

# Target: T3, Human PCSK9-myc-myc-his
# Assay: ELISA, mAb coated, 1.2 nM antigen;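 further: antigen allowed to bind for 1 h at room temperature, then captured protein revealed with an HRP-linked polyclonal anti-myc antibody and read as optical density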
# Excerpt: as §3
row,Binder,OD [od]
1,B1,> 1
2,B5,> 1
3,B6,> 1
4,B8,> 1
5,B2,> 1
6,B3,> 1

# Target: T1, Chimeric protein #1 …
# Assay: ELISA, mAb coated, 1.2 nM antigen;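 further: antigen allowed to bind for 1 h at room temperature, then captured protein revealed with an HRP-linked polyclonal anti-myc antibody and read as optical density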
# Excerpt: as §3
row,Binder,OD [od]
1,B1,> 1
2,B5,> 1
3,B6,> 1
4,B8,< 0.4
5,B2,< 0.4
6,B3,< 0.4

# Target: T5, hPCSK9(D374Y)-mmh (human, UniProt Q8NBP7 31-692)
# T5 construct: also called hPCSK(D374Y)-mmh
# Assay: ELISA, mAb coated, 1.2 nM antigen;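 further: antigen allowed to bind for 1 h at room temperature, then captured protein revealed with an HRP-linked polyclonal anti-myc antibody and read as optical density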
# Excerpt: as §3
row,Binder,OD [od]
1,B1,> 1
2,B5,> 1
3,B6,> 1
4,B8,> 1
5,B2,> 1
6,B3,> 1

# Target: T2, Chimeric protein #3 …
# Assay: ELISA, mAb coated, 1.2 nM antigen
# Excerpt: as §3
row,Binder,OD [od]
1,B5,< 0.4
2,B6,< 0.4
3,B8,< 0.4
4,B2,> 1
5,B3,0.4 to 1

# Target: Chimeric protein #2 (hPro-mCat-mC-term-mmh) (human; mouse, UniProt Q80W65 19-694)
# Assay: ELISA, mAb coated, 1.2 nM antigen
# Excerpt: as §3
row,Binder,OD [od]
1,B1,0.4 to 1
2,B5,< 0.4
3,B6,< 0.4
4,B8,> 1
5,B2,< 0.4
6,B3,< 0.4

# Target: T3, Human PCSK9-myc-myc-his
# Assay: SPR, mAb captured, 25C
# Remark: another data set of the same source
# Description: as §2
Binder,Kd [nM],T1/2 [min]
B4,0.865,106
B5,3.75,46
B6,0.972,59
B7,0.129,151
B8,0.771,28
B9,30.4,137

# Target: T6, tagged rhesus monkey (Macaca mulata) PCSK9 (rhesus monkey (Macaca mulata), UniProt A8T666 31-692)
# T6 construct: also called mmPCSK9-mmh; mmPCSK9
# Assay: SPR, 25C
# T6 sequence (A8T666 31-692 limits assumed): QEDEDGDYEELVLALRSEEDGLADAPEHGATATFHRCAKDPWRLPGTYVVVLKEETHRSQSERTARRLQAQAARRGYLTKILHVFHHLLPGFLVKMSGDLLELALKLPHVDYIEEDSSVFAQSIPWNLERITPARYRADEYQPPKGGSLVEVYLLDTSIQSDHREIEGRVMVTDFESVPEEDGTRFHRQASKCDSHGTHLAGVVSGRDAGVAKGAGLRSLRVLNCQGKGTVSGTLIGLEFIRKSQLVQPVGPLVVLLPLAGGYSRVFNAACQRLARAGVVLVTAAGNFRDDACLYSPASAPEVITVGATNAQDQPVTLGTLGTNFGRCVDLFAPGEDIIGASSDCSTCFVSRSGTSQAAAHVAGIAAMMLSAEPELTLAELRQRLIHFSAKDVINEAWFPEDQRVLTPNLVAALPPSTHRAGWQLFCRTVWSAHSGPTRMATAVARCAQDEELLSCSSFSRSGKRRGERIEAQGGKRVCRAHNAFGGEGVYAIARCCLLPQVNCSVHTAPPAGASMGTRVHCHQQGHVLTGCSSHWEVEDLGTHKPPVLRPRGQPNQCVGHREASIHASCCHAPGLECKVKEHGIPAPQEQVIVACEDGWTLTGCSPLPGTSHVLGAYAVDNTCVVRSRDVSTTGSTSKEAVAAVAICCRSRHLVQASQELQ
Binder,T1/2 [min],koff [s⁻¹]
B1,76,0.000152
B5,1,0.00806
B6,3,0.00369
B7,51,0.000229
B8,36,0.000317

# Target: T3, Human PCSK9-myc-myc-his
# Assay: SPR, mAb captured, 37C
# Remark: another data set of the same source
# Description: as §1
Binder,Kd [nM],T1/2 [min]
B1,1.51,32
B2,7.5,19
B3,7.5,14

# Reference: patent US20130064834A1 (published 2013)
